Reference: patent US20020111475A1 (IMMUNEX, published 2002)
Numbering of substitutions follows the chain as printed. Names and notes keep the numbering of the source.

T1: human flt3 on BAF/hflt3 cells (BAF-BO3 cells transfected with human flt3 cDNA) (human, UniProt P36888 27-993)
T1 construct: whole, on cells; also called flt3 Receptor
T1 sequence (looked up): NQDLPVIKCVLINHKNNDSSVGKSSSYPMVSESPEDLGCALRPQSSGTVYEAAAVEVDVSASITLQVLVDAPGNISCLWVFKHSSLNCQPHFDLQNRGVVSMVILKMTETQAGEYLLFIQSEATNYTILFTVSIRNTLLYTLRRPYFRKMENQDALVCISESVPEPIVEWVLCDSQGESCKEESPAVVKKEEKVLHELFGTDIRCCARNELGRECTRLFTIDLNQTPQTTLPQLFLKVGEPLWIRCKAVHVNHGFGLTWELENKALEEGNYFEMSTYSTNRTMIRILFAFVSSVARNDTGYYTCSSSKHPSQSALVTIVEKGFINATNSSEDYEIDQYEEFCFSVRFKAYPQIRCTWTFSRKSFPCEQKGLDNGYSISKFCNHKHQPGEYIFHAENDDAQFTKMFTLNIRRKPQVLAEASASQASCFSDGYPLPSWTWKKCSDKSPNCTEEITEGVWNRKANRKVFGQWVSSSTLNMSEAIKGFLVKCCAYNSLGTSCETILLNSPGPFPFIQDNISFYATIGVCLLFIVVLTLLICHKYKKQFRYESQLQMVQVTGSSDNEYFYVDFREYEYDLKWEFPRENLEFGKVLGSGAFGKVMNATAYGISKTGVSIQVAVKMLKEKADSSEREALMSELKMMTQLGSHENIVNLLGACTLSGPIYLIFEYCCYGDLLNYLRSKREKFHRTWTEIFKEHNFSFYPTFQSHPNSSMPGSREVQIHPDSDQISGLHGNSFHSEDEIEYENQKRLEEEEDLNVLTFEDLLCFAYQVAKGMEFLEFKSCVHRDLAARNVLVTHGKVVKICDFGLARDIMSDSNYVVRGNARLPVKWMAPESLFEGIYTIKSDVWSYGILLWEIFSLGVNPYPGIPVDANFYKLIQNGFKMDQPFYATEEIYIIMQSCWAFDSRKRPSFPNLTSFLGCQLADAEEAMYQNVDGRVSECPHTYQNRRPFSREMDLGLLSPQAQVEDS

B1: recombinant CHO-derived human flt3-L, which has native human sequence (ligand)
chain: TQDCSFQHSPISSDFAVKIRELSDYLLQDYPVTVASNLQDEELCGGLWRLVLAQRWMERLKTVAGSKMQGLLERVNTEIHFVTKCAFQPPPSCLRFVQTNISRLLQETSEQLVALKPWITRQNFSRCLELQCQPDSSTLPPPWSPRPLEATAPTAPQP
B2: wild type flt3-L (yeast-derived recombinant human flt3 Ligand) (ligand)
chain: LSGTQDCSFQHSPISSDFAVKIRELSDYLLQDYPVTVASNLQDEELCGGLWRLVLAQRWMERLKTVAGSKMQGLLERVNTEIHFVTKCAFQPPPSCLRFVQTNISRLLQETSEQLVALKPWITRQNFARCLELQCQPDSSTLPPPWSPRPLEATAP
notes: Secreted from yeast (alpha-factor leader, final plasmid PIXY797); Leu-Ser-Gly stands before Thr1 of the mature protein (80% of chains; 20% begin at Ser); Noncovalent dimer (dimer peak collected); also called WT; 125I-flt3-L (radiolabelled form)
B3: flt3-L quadruply substituted mutant L-3H/H8Y/K84E/Q122R (ligand)
chain: B2 chain with L1H, H11Y, K87E, Q125R
notes: Constructed by PCR mutagenesis from K84E/Q122R, expressed in yeast and purified
B4: flt3-L multiple mutant K84E/Q122R (ligand)
chain: B2 chain with K87E, Q125R
notes: also called double mutant K84E/Q122R
B5: flt3-L mutant H8Y (ligand)
chain: B2 chain with H11Y
notes: yeast supernatant and purified protein (dimer)

Key:
[1] = biological target: T1, human flt3 on BAF/hflt3 cells (BAF-BO3 …); experiment: Kdi: inhibition of binding of radiolabelled yeast-derived flt3-L to BAF-BO3 cells transfected with human flt3
Description: (§1) Binding assays were performed using a phthalate oil separation method as described previously for murine ¹²⁵I-GM-CSF (Park et al., J. Biol. Chem. 261:4177-4183 (1986)). Briefly, BAF-BO3 cells transfected with human flt3 cDNA (0.5-1×10⁶) were incubated with serial dilutions of ¹²⁵I-flt3-L in binding medium (RPMI 1640, 2.5% bovine serum albumin, 0.2% NaN3, 20 mM Hepes, pH 7.2) in 96 well microtiter plates maintained on a mini-orbital shaker (Bellco) at 37° C. for 90 minutes. Inhibition binding assays were carried out by holding the radiolabeled flt3-L concentration constant at 0.3 nM, while the concentration of unlabeled competitor proteins ranged from 150 nM to 0.001 nM. The ratio of Kdi of mutant to wild type flt3-L, determined in at least duplicate, in a given assay was averaged over at least three independent assays and the standard error of the mean (SEM) reported. […]
Specific activity of purified mutant or wild type protein was calculated as the ratio of proliferation activity in BAF/hflt3 cells (units/ml) to concentration of flt3-L protein as determined by amino acid composition (ng/ml). The ratio of specific activity of mutant to wild type flt3-L, determined in duplicate, in a given assay was averaged over at least three independent assays and the standard error of the mean (SEM) is reported. […]

[2] = biological target: T1, human flt3 on BAF/hflt3 cells (BAF-BO3 …); experiment: inhibition of 125I-flt3-L binding to BAF/hflt3 cells, purified protein
Description: Binding assays were performed using a phthalate oil separation method as described previously for murine ¹²⁵I-GM-CSF (Park et al., J. Biol. Chem. 261:4177-4183 (1986)). Briefly, BAF-BO3 cells transfected with human flt3 cDNA (0.5-1×10⁶) were incubated with serial dilutions of ¹²⁵I-flt3-L in binding medium (RPMI 1640, 2.5% bovine serum albumin, 0.2% NaN3, 20 mM Hepes, pH 7.2) in 96 well microtiter plates maintained on a mini-orbital shaker (Bellco) at 37° C. for 90 minutes. Inhibition binding assays were carried out by holding the radiolabeled flt3-L concentration constant at 0.3 nM, while the concentration of unlabeled competitor proteins ranged from 150 nM to 0.001 nM. The ratio of Kdi of mutant to wild type flt3-L, determined in at least duplicate, in a given assay was averaged over at least three independent assays and the standard error of the mean (SEM) reported. […] For this assay, cells expressing human flt3 (BAF/hflt3 cells) were constructed from BAF/B03 cells, using a procedure previously described for producing BAF/B03 cells expressing the murine flt3 (Lyman et al., Cell 75:1157-1167 (1993)). Expression of human flt3 by BAF/hflt3 cells was confirmed by examining the capacity of the cells to proliferate in response to soluble flt3-L, and by flow cytometric analysis using biotinylated flt3-L.
^aThe specific activity of purified mutant or wild type protein was determined by taking the ratio of proliferation activity in BAF/hflt3 cells (units/ml) to concentration of flt3-L protein as determined by amino acid composition (ng/ml). The ratio of specific activity of mutant to wild type flt3-L is averaged over three independent assays, and the standard error of the mean (SEM) is reported. ^bThe Kdifor wild type protein is 61 ± 19 pM (n = 2). The ratio of Kₐᵢ of mutant to wild type flt3-L is averaged over two independent assays and the standard deviation is reported.

[3] = biological target: T1, human flt3 on BAF/hflt3 cells (BAF-BO3 …); experiment: Kdi: inhibition of 125I-flt3-L binding to BAF/hflt3 cells, the assays of Table 3
[4] = biological target: T1, human flt3 on BAF/hflt3 cells (BAF-BO3 …); experiment: direct binding of serial dilutions of 125I-flt3-L to BAF-BO3 cells transfected with human flt3, 37 C, phthalate oil separation (n=7)
Description: as §1
(§2) The ordinate is the Log¹⁰ of the value relative to wild type flt3-L, and the abscissa is the flt3-L mutant designation. […] The ratio of Kₐᵢ mutant to wild type flt3-L, determined in at least duplicate, in a given assay is averaged over at least three independent assays and the standard error of the mean (SEM) is reported.

[5] = biological target: T1, human flt3 on BAF/hflt3 cells (BAF-BO3 …); experiment: cell-based or functional assay
[6] = biological target: T1, human flt3 on BAF/hflt3 cells (BAF-BO3 …); experiment: Kdi: inhibition by unlabelled flt3-L of 0.3 nM 125I-flt3-L binding to BAF-BO3 cells transfected with human flt3 (n=7)
Description: as §1, §2

Binder | Ki [1] [nM] | Kai MUT / Kai Wt [2] | Ki [3] [nM] | Kd [4] [nM] | Sp.Ac. MUT / Sp.Ac. Wt (BAF/hflt3 cell proliferation units/ml per ng/ml purified protein) [5] | Ki [6] [nM]
B1 | 0.08 | – | – | – | – | –
B2 | – | 1 ratio to wild type | 0.061 | 0.13 | 1 ratio to wild type | 0.09
B3 | – | 8.6 ratio to wild type | – | – | 3 ratio to wild type | –
B4 | – | 3.4 ratio to wild type | – | – | 2.9 ratio to wild type | –
B5 | – | 2.8 ratio to wild type | – | – | 2.1 ratio to wild type | –
